Experimental data from US20220396633A1 (MABPRO A S, published 2022).

B1: CA9hu-2_HC1LC5 (antibody, V domains shown)
VH: EVQLVESGGGLVQPGGSLKLSCAASGFTFNTNAMHWVRQASGKGLEWVGRIRSKSNNYTTYYADSVKDRFTISRDDSKNTAYLQMNSLKTEDTAVYYCVCGSWFAYWGQGTLVTVSS
VL: DIVMTQSPDSLAVSLGERATINCKSSQSLLNSSNQKNYLAWYQQKPGQPPKLLIYFTSTRQSGVPDRFSGSGSGTDFTLTISSLQAEDVAVYYCQQHYSIPLTFGQGTKLEIK
notes: Humanized variant of IV/18; VH in-frame with human IgG constant domain (allotype G1m17,1), VL in-frame with human kappa constant domain (allotype Km3)
B2: CA9hu-2_HC1LC1 (antibody, V domains shown)
VH: EVQLVESGGGLVQPGGSLKLSCAASGFTFNTNAMHWVRQASGKGLEWVGRIRSKSNNYTTYYADSVKDRFTISRDDSKNTAYLQMNSLKTEDTAVYYCVCGSWFAYWGQGTLVTVSS
VL: DVVMTQSPDSLAVSLGERVTINCKSSQSLLNSSNQKNYLAWYQQKPGQSPKLLIYFTSTRQSGVPDRFSGSGSGTDFTLTISSLQAEDVAVYYCQQHYSIPLTFGQGTKLEIK
notes: as for B1
B3: CA9hu-2_HC1LC2 (antibody, V domains shown)
VH: EVQLVESGGGLVQPGGSLKLSCAASGFTFNTNAMHWVRQASGKGLEWVGRIRSKSNNYTTYYADSVKDRFTISRDDSKNTAYLQMNSLKTEDTAVYYCVCGSWFAYWGQGTLVTVSS
VL: DIVMTQSPDSLAVSLGERATINCKSSQSLLNSSNQKNYLAWFQQKPGQPPNLVIYFTSTRQSGVPDRFSGSGSGTDFTLTINSLQAEDVAVYFCQQHYSIPLTFGQGTQVEIK
notes: as for B1
B4: CA9hu-2_HC1LC3 (antibody, V domains shown)
VH: EVQLVESGGGLVQPGGSLKLSCAASGFTFNTNAMHWVRQASGKGLEWVGRIRSKSNNYTTYYADSVKDRFTISRDDSKNTAYLQMNSLKTEDTAVYYCVCGSWFAYWGQGTLVTVSS
VL: DIQMTQSPDSLAVSLGERATINCKSSQSLLNSSNQKNYLAWYQQKPGQPPKLLIYFTSTRQSGVPDRFSGSGSGTDFTLTISSLQAEDVAVYFCQQHYSIPLTFGQGTKVEIK
notes: as for B1
B5: CA9hu-2_HC1LC4 (antibody, V domains shown)
VH: EVQLVESGGGLVQPGGSLKLSCAASGFTFNTNAMHWVRQASGKGLEWVGRIRSKSNNYTTYYADSVKDRFTISRDDSKNTAYLQMNSLKTEDTAVYYCVCGSWFAYWGQGTLVTVSS
VL: DIVMTQSPDSLAVSLGERATINCKSSQSLLNSSNQKNYLAWFQQKPGQPPKVLIYFTSTRQSGVPDRFTGSGSGTDFTLTISSLQAEDVAVYYCQQHYSIPLTFGQGTKLEIK
notes: as for B1
B6: CA9hu-2_HC2LC1 (antibody, V domains shown)
VH: EVQLVESGGGLVQPGGSLKLSCAASGFTFNTNAMHWVRQASGKGLEWVGRIRSKSNNYTTYYADSVKDRFTISRDDSKSTAYLQMNSLKTEDTAVYYCVCGSWFAYWGQGTLVTVSS
VL: DVVMTQSPDSLAVSLGERVTINCKSSQSLLNSSNQKNYLAWYQQKPGQSPKLLIYFTSTRQSGVPDRFSGSGSGTDFTLTISSLQAEDVAVYYCQQHYSIPLTFGQGTKLEIK
notes: as for B1
B7: CA9hu-2_HC2LC2 (antibody, V domains shown)
VH: EVQLVESGGGLVQPGGSLKLSCAASGFTFNTNAMHWVRQASGKGLEWVGRIRSKSNNYTTYYADSVKDRFTISRDDSKSTAYLQMNSLKTEDTAVYYCVCGSWFAYWGQGTLVTVSS
VL: DIVMTQSPDSLAVSLGERATINCKSSQSLLNSSNQKNYLAWFQQKPGQPPNLVIYFTSTRQSGVPDRFSGSGSGTDFTLTINSLQAEDVAVYFCQQHYSIPLTFGQGTQVEIK
notes: as for B1
B8: CA9hu-2_HC2LC3 (antibody, V domains shown)
VH: EVQLVESGGGLVQPGGSLKLSCAASGFTFNTNAMHWVRQASGKGLEWVGRIRSKSNNYTTYYADSVKDRFTISRDDSKSTAYLQMNSLKTEDTAVYYCVCGSWFAYWGQGTLVTVSS
VL: DIQMTQSPDSLAVSLGERATINCKSSQSLLNSSNQKNYLAWYQQKPGQPPKLLIYFTSTRQSGVPDRFSGSGSGTDFTLTISSLQAEDVAVYFCQQHYSIPLTFGQGTKVEIK
notes: as for B1
B9: CA9hu-2_HC2LC4 (antibody, V domains shown)
VH: EVQLVESGGGLVQPGGSLKLSCAASGFTFNTNAMHWVRQASGKGLEWVGRIRSKSNNYTTYYADSVKDRFTISRDDSKSTAYLQMNSLKTEDTAVYYCVCGSWFAYWGQGTLVTVSS
VL: DIVMTQSPDSLAVSLGERATINCKSSQSLLNSSNQKNYLAWFQQKPGQPPKVLIYFTSTRQSGVPDRFTGSGSGTDFTLTISSLQAEDVAVYYCQQHYSIPLTFGQGTKLEIK
notes: as for B1
B10: CA9hu-2_HC2LC5 (antibody, V domains shown)
VH: EVQLVESGGGLVQPGGSLKLSCAASGFTFNTNAMHWVRQASGKGLEWVGRIRSKSNNYTTYYADSVKDRFTISRDDSKSTAYLQMNSLKTEDTAVYYCVCGSWFAYWGQGTLVTVSS
VL: DIVMTQSPDSLAVSLGERATINCKSSQSLLNSSNQKNYLAWYQQKPGQPPKLLIYFTSTRQSGVPDRFSGSGSGTDFTLTISSLQAEDVAVYYCQQHYSIPLTFGQGTKLEIK
notes: as for B1
B11: CA9hu-2_HC3LC5 (antibody, V domains shown)
VH: QVQLVESGGGVVQPGGSLRLSCAASGFTFNTNAMHWVRQAPGRGLEWVARIRSKSNNYTTYYADSVKDRFTISRDNSKNTLYLQVNSLRAEDTAVYYCVCGSWFAYWGQGTLVTVSS
VL: DIVMTQSPDSLAVSLGERATINCKSSQSLLNSSNQKNYLAWYQQKPGQPPKLLIYFTSTRQSGVPDRFSGSGSGTDFTLTISSLQAEDVAVYYCQQHYSIPLTFGQGTKLEIK
notes: as for B1
B12: CA9hu-2_HC4LC1 (antibody, V domains shown)
VH: EVQLVESGGGVVQPGRSLRLSCAASGFTFNTNAMHWVRQAPGKGLEWVARIRSKSNNYTTYYADSVKDRFTISRDNSKNTLYLQMNSLRAEDTAVYYCVCGSWFAYWGQGTLVTVSS
VL: DVVMTQSPDSLAVSLGERVTINCKSSQSLLNSSNQKNYLAWYQQKPGQSPKLLIYFTSTRQSGVPDRFSGSGSGTDFTLTISSLQAEDVAVYYCQQHYSIPLTFGQGTKLEIK
notes: as for B1
B13: CA9hu-2_HC4LC3 (antibody, V domains shown)
VH: EVQLVESGGGVVQPGRSLRLSCAASGFTFNTNAMHWVRQAPGKGLEWVARIRSKSNNYTTYYADSVKDRFTISRDNSKNTLYLQMNSLRAEDTAVYYCVCGSWFAYWGQGTLVTVSS
VL: DIQMTQSPDSLAVSLGERATINCKSSQSLLNSSNQKNYLAWYQQKPGQPPKLLIYFTSTRQSGVPDRFSGSGSGTDFTLTISSLQAEDVAVYFCQQHYSIPLTFGQGTKVEIK
notes: as for B1
B14: CA9hu-2_HC4LC4 (antibody, V domains shown)
VH: EVQLVESGGGVVQPGRSLRLSCAASGFTFNTNAMHWVRQAPGKGLEWVARIRSKSNNYTTYYADSVKDRFTISRDNSKNTLYLQMNSLRAEDTAVYYCVCGSWFAYWGQGTLVTVSS
VL: DIVMTQSPDSLAVSLGERATINCKSSQSLLNSSNQKNYLAWFQQKPGQPPKVLIYFTSTRQSGVPDRFTGSGSGTDFTLTISSLQAEDVAVYYCQQHYSIPLTFGQGTKLEIK
notes: as for B1
B15: CA9hu-2_HC5LC1 (antibody, V domains shown)
VH: EVQLVESGGGLVQPGGSLKLSCAASGFTFNTNAMHWVRQASGKGLEWVGRIRSKSNNYTTYYADSVKDRFTISRDDSKNTAYLQMNSLKTEDTAVYYCVCGSWFAYWGQGTTVTVSS
VL: DVVMTQSPDSLAVSLGERVTINCKSSQSLLNSSNQKNYLAWYQQKPGQSPKLLIYFTSTRQSGVPDRFSGSGSGTDFTLTISSLQAEDVAVYYCQQHYSIPLTFGQGTKLEIK
notes: as for B1
B16: CA9hu-2_HC5LC2 (antibody, V domains shown)
VH: EVQLVESGGGLVQPGGSLKLSCAASGFTFNTNAMHWVRQASGKGLEWVGRIRSKSNNYTTYYADSVKDRFTISRDDSKNTAYLQMNSLKTEDTAVYYCVCGSWFAYWGQGTTVTVSS
VL: DIVMTQSPDSLAVSLGERATINCKSSQSLLNSSNQKNYLAWFQQKPGQPPNLVIYFTSTRQSGVPDRFSGSGSGTDFTLTINSLQAEDVAVYFCQQHYSIPLTFGQGTQVEIK
notes: as for B1
B17: CA9hu-2_HC5LC3 (antibody, V domains shown)
VH: EVQLVESGGGLVQPGGSLKLSCAASGFTFNTNAMHWVRQASGKGLEWVGRIRSKSNNYTTYYADSVKDRFTISRDDSKNTAYLQMNSLKTEDTAVYYCVCGSWFAYWGQGTTVTVSS
VL: DIQMTQSPDSLAVSLGERATINCKSSQSLLNSSNQKNYLAWYQQKPGQPPKLLIYFTSTRQSGVPDRFSGSGSGTDFTLTISSLQAEDVAVYFCQQHYSIPLTFGQGTKVEIK
notes: as for B1
B18: CA9hu-2_HC5LC4 (antibody, V domains shown)
VH: EVQLVESGGGLVQPGGSLKLSCAASGFTFNTNAMHWVRQASGKGLEWVGRIRSKSNNYTTYYADSVKDRFTISRDDSKNTAYLQMNSLKTEDTAVYYCVCGSWFAYWGQGTTVTVSS
VL: DIVMTQSPDSLAVSLGERATINCKSSQSLLNSSNQKNYLAWFQQKPGQPPKVLIYFTSTRQSGVPDRFTGSGSGTDFTLTISSLQAEDVAVYYCQQHYSIPLTFGQGTKLEIK
notes: as for B1
B19: CA9hu-2_HC5LC5 (antibody, V domains shown)
VH: EVQLVESGGGLVQPGGSLKLSCAASGFTFNTNAMHWVRQASGKGLEWVGRIRSKSNNYTTYYADSVKDRFTISRDDSKNTAYLQMNSLKTEDTAVYYCVCGSWFAYWGQGTTVTVSS
VL: DIVMTQSPDSLAVSLGERATINCKSSQSLLNSSNQKNYLAWYQQKPGQPPKLLIYFTSTRQSGVPDRFSGSGSGTDFTLTISSLQAEDVAVYYCQQHYSIPLTFGQGTKLEIK
notes: as for B1

Each binder was assayed against CA IX-positive antigen (protein extract of C-33a_CA IX cells) (human, UniProt Q16790 38-459) (assay: ELISA, antibody 5 ug/ml on coated protein extract of C-33a_CA IX cells versus C-33a_neo).
Description: To evaluate the antigen-binding specificity, all twenty-five humanized variants of CA9hu-2 were subjected to enzyme-linked immunosorbent assay (ELISA) using either CA IX-positive or CA IX-negative antigen. Antigens were prepared from stably transfected C-33a cell line expressing CA IX (C-33a_CA IX) and parental mock-transfected C-33a cells without CA IX expression (C-33a_neo).
Proteins were extracted from the cell monolayer with RIPA lysis buffer (0.1% deoxycholate, 1% Triton X-100 and protease inhibitor cocktail in PBS). Protein concentrations were determined by bicinchoninic acid assay (ThermoFisher Scientific, Waltham, Mass. USA) according to the manufacturer's instructions. Protein extracts were diluted to final concentration 0.2 mg/ml in PBS. Protein concentration of antigen samples used in screening of antigen-antibody specific interaction tested by ELISA meets the requirements for low detergent content that could otherwise interfere throughout the analysis. 50 μl of either CA IX-positive or CA IX-negative antigen was coated on the surface of microplate wells overnight at 37° C. After washing with PBS-T 0.05% Tween-20 in PBS pH7.2, 50 μl of all humanized variants of CA9hu-2 (diluted to concentration 5 μg/ml in 10% FCS in PBS-T) were added and incubated for 2 h at room temperature. Peroxidase-labeled swine anti-human IgG (diluted 1:5000 in 10% FCS in PBS-T; Sigma-Aldrich, St. Louis, Mo. USA) was used as detector. Parental IV/18 antibody (marked as “mouse Ab”) as well as chimeric HC0LC0 antibody (having the murine variable domains and the human Ig constant domains) were used as reference samples. Results are expressed as a fold of induction and are calculated as O.D. values of absorbance measured at 492 nm from CA IX-positive antigen/O.D. values of absorbance measured at 492 nm from CA IX-negative antigen.
B1: binds. B2: binds. B3: binds. B4: binds. B5: binds. B6: binds. B7: binds. B8: binds. B9: binds. B10: binds. B11: binds. B12: binds. B13: binds. B14: binds. B15: binds. B16: binds. B17: binds. B18: binds. B19: binds.
